Molecular target: Xenopus histone H3/H4 tetramer (Xenopus, UniProt P84233 21-136; P62799 17-103)
Assay: ITC

Kd [µM]	dH [kcal/mol]	Binder
2.3	-38.9	ALRYMESSWKEQQKEEAKSLRLGMQEDLEEMRREEEEMQRRRAKKLKRR (domain or fragment) [hSpt2C (637–685) composed of only αC2]
55.6	-9.2	EPQEEISKHIREIFGYDRKKYKDESDYALRYMESS (domain or fragment) [hSpt2C (610–644) composed of only αC1]
	-19.2	yeast ySpt2C(259–333) (domain or fragment) PGYDRDEIWAMFNRGKKRSEYDYDELEDDDMEANEMEILEEEEMARKMARLEDKREEAWLKKHEEEKRRRKKGIR
